Measurements published in patent US20180118808A1 (CALIFORNIA INSTITUTE FOR BIOMEDICAL RESEARCH, published 2018).

B1: Fmc63 HCCT K4 switch (Fab, V domains shown)
VH: EVKLQESGPGLVAPSQSLSVTCTVSGVSLPDYGVSWIRQPPRKGLEWLGVIWGSETTYYNSALKSRLTIIKDNSKSQVFLKMNSLQTDDTAIYYCAKHYYYGGSYAMDYWGQGTSVTVSS
VL: DIQMTQTTSSLSASLGDRVTISCRASQDISKYLNWYQQKPDGTVKLLIYHTSRLHSGVPSRFSGSGSGTDYSLTISNLEQEDIATYFCQQGNTLPYTFGGGTKLEIKR
B2: Fmc63 HCCT E4 switch (Fab, V domains shown)
VH: B1 VH
VL: B1 VL

Legend:
E4 Chimeric Receptor = biological target: T1, E4 Chimeric Receptor; assay: cell-based or functional assay
T1 chain: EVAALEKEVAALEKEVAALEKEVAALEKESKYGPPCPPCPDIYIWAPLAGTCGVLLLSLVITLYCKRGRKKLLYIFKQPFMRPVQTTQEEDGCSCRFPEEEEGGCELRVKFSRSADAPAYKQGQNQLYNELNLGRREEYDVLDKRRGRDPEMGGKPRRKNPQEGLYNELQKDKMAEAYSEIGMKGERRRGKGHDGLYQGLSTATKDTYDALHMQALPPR

K4 Chimeric Receptor = biological target: T2, K4 Chimeric Receptor; assay: cell-based or functional assay
T2 chain: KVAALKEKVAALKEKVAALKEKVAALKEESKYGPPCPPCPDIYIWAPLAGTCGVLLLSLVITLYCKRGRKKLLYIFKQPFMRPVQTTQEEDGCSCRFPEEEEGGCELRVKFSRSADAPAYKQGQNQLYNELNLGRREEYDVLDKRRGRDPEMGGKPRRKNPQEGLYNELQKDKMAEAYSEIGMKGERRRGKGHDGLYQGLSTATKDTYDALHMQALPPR

| Binder | EC50 (nM) of switch in cytotoxicity assay (LDH release), E4 CAR-T cells against CD19-positive Raji luc cells (E4 Chimeric Receptor) [nM] | EC50 (nM) of switch in cytotoxicity assay (LDH release), K4 CAR-T cells against CD19-positive Raji luc cells (K4 Chimeric Receptor) [nM] |
| --- | --- | --- |
| B1 | 0.00432 | – |
| B2 | – | 0.0507 |
